{
  "source": "paper PMC7139703",
  "about": "“Thiopurine Derivative-Induced Fpg/Nei DNA Glycosylase Inhibition: Structural, Dynamic and Functional Insights” (International Journal of Molecular Sciences, 2020)",
  "experiment_in_all_cases": "EMSA",
  "key": {"[1]": {"target": "T1, LlFpg (Lactococcus lactis) (UniProt P42371)", "T1 sequence": "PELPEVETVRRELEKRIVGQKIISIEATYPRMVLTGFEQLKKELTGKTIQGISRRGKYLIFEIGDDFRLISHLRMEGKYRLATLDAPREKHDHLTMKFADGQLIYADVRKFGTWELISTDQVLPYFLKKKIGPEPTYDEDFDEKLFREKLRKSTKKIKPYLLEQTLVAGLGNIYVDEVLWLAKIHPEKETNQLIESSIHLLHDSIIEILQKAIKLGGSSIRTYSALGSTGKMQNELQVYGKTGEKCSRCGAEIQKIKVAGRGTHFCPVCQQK", "details": "8% DMSO, no inhibitor, complex C1 (1:1), N at position 7 of strand 1 = tetrahydrofuran (THF) abasic site analog, opposite C, EMSA: 0.1 nM probe, 25 mM HEPES/NaOH pH 7.5, 150 mM NaCl, 5% glycerol, 0.1 mg/mL BSA, 4 °C, 30 min, 10% native PAGE at 4 °C"}, "mvNei1 (mimivirus)": {"tested_on": "mvNei1 (mimivirus)", "details": "N at position 7 of strand 1 = tetrahydrofuran (THF) abasic site analog, opposite C; EMSA: 0.1 nM probe, 25 mM HEPES/NaOH pH 7.5, 150 mM NaCl, 5% glycerol, 0.1 mg/mL BSA, 8% DMSO, 4 °C, 30 min; 10% native PAGE at 4 °C"}, "[2]": {"target": "∆hNeil1 (truncated hNeil1) (human) (UniProt Q96FI4)", "sequence (Q96FI4 whole entry, the tested form may be a part)": "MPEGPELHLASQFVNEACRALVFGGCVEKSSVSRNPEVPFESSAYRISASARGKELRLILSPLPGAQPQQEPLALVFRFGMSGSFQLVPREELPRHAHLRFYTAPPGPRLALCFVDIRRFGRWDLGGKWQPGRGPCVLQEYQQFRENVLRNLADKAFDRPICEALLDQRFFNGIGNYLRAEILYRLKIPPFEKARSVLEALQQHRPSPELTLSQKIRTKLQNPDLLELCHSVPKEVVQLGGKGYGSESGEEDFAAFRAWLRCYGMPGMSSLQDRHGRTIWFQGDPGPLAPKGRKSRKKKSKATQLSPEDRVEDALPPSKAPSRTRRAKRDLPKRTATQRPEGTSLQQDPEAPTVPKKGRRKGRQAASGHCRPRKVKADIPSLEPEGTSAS", "details": "8% DMSO, no inhibitor, named hNeil1 in the sentence, N at position 7 of strand 1 = tetrahydrofuran (THF) abasic site analog, opposite C, EMSA: 0.1 nM probe, 25 mM HEPES/NaOH pH 7.5, 150 mM NaCl, 5% glycerol, 0.1 mg/mL BSA, 4 °C, 30 min, 10% native PAGE at 4 °C"}},
  "data": [
    {"sequence": "CTCTTTNTTTCTCG / GCGAGAAACAAAGA [14-mer THF:C]", "values": [
      {"measurement": "K half", "setting": "[1]", "value": 0.25, "unit": "nM"},
      {"measurement": "K half", "setting": "mvNei1 (mimivirus)", "value": 5, "unit": "nM"},
      {"measurement": "K half", "setting": "[2]", "value": 7, "unit": "nM"}
    ]}
  ]
}
